The target in assay [1] is hepatitis B surface antigen (HBsAg), purified from human plasma (hepatitis B virus). Briefly: competition inhibition ELISA: free HBsAg against HBsAg-coated wells; I50 of antigen multiplied by 100. On the technique in general: In an ELISA, binding on a coated surface is turned into a signal by an enzyme label.
Assay [2] has the same target. As to the kind of experiment: indirect competition ELISA on HBsAg-coated wells; highest attainable concentration of unlabeled Fab; competitor: HBV#8 IgG.
The target is the same in assay [3]. Briefly: indirect competition ELISA on HBsAg-coated wells; highest attainable concentration of unlabeled Fab; competitor: biotinylated HBV#8 Fab.
Assay [4] has the same target. As to the kind of experiment: competition inhibition ELISA; Kd of the IgG against Kd of the Fab.

In general, Kd refers to the equilibrium constant for the complex coming apart.

hepatitis B surface antigen (HBsAg), purified from human plasma (hepatitis B virus), sequence (P03141 175-400): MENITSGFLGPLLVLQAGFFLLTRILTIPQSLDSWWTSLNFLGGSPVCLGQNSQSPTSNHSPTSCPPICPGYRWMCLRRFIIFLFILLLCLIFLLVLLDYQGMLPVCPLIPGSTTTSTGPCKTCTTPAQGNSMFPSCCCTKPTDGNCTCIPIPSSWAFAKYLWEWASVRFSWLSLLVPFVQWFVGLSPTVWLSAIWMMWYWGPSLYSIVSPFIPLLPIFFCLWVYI

B1: HBV#8 Fab (Fab, V domains shown)
VH: EVQLLESGPGLVKPSQTLSLTCAVSGAFMTSDYLYWSWLRQPPGKGPEWIGGIYTTGRSHYNPSLRGRATLSVDTSKNQFSLELNSVTAADTAVYYCARGQYHNWGPSLFDYYNYYYMDVWGKGTTVTVSS
VL: AAELTQSPSSLSASVGDRVTITCRASQDISNYLAWYQQKPGKAPKLLIYSASRLQSGVPSRFSGSGSGTDYTLTLSSLHPEDSATYYCHQYHSAPWTFGQGTKVEIKR
B1 came in with a Kd in assay [1] of 1900 nM. Moreover, the percent inhibition of binding in assay [2] came out at 57%; in assay [3] it was 66%.

B2: HBV#8 IgG (antibody, V domains shown)
VH: B1 VH
VL: B1 VL
On to B2, for which, in assay [4], the fold improvement of affinity (IgG against Fab) is 75 fold. Besides, the Kd in assay [1] is 25 nM.

Values taken from patent US20110097270A1.
